test: soluble on expression in E. coli; label from the status in PepcDB or PDB records

Sequence	soluble on expression in E. coli
MGSDKIHHHHHHMLFNTRPKEDRKDLYDREKEIEMIKDSIARGEWIAVLGMRRIGKTSVVNVAVKEIGAIKVSINLMRIHDSRKKQYPKHVLISLLIEEINEAIKNYTILGKVAKLLSNILGVEEIQTNKVRAKLTKIRGTDITYIIREMDSIARDNKKQLVIILDEAQELAKVNGLDFPSIFHDVYDNCKNTVIIFTGSMVKLIEKTLKNIEYTEPFFGRYIRKITLGRFLPEQSREFLEKGFEEEGIKVDESVIDEAVKRLDGIPGWLTLFGSEYTFSAKMGTKPRIDEIIEKAINEVRNEARNFIFSTQSPLRYSAVILALDRLGGKGELHEIVKVSSTILNENIPEPRVYEILNRLVEFDFIERREDNEYYLHQDEPNRKGLILAAKDSPASYSI	not soluble
AFVVTDNCIKCKYTDCVEVCPVDCFYEGPNFLVIHPDECIDDALCEPECPAQAIFSEDEVPEDMQEFIQLNAELAEVWPNITEKKDPLPDAEDWDGVKGKLQHLER	soluble
MPINGIKIKNSSGEEVYVLKEKGSVVNFGREKKVCHITFDPHAARVSRIHASIEWGDEGLFFTDKSKEGTEINGTRLKQSSQELHEGVYQLAIGGISMTLEVDGDELEETVIDSPQPDESSTVPETVYEESRYSNSSIKEMPAVEVTDDE	not soluble
MGHHHHHHGGHMSLAQNDHETVDMLLVGAGIMSATLAVLLKELDPNLKMEVVELQESGAIESSNPWNNAGTGHAGLCELNYTPQSADGSIDIKKAVGINTMFEVSKQLWSHLVAKGTFGSPKTFINPVPHLSFVRGSEGIAYLKKRFESLTKHHAFETMVYSEDKATLAEWMPLMMPGRPADEAIAATRVEGGTDVNFGALTNQLLQHLAQQPGAQIRYNQKVTHLRRADNGWRVTVKDTRNGGDREIQARFVFLGAGGGALPLLQLSGIPEGKGFGGFPVSGQWLRCDNPEIVKQHQAKVYSQAEVGSPPMSVPHLDTRVVDGKKSLLFGPYAGFSTKFLRHGSFLDLPLSVRPGNILPMLSVARDNMDLTRYLIGQVMQSPEQRLEALRKFYPEARAEDWRLEVAGQRVQIIKKDPKKGGILQFGTELVAAHDGSIAALLGASPGASVTVSIMLGLIERCFPEQARSPEWSAKLKEIFPAREKELESDAELYRSVSSRCSEVLELTAKNDVQAEGGS	soluble
MGKREKKPNRRRHKGEYSNDAEDFYDQHPPAVASVDEEDEENSDEEEEENDGNESSDLPSKFLLYQQSVQSPKGDISYLQKFFLIFYIDCWNSAEWLKTDTRRTAIGLDFDLEALEWCMDNNISKLGSDVYSRMSLFHGNVLTPLEAKQVKSKSHELIQNISLDDGDDNEDLADPSVVESLEKDGPDSLPKRDIVCAFNFSCCCLHKRSELVSYFKNARDALSKKGGIFVMDLYGGASAEGQLKLQRKFPNFTYTWEQAEFDILSRKTRISLHYHLQKQNRKIRHAFSYSWRLWSLPEIKDCMEEAGFSSVHFWLREMPDASEMRRTDGFGAGRDIKYEQVKSFQQCDSWNAYIVAVSL	not soluble
MGSDKIHHHHHHMKTIRIGSGAGYAGDRIEPAVELAQKGDIQYLVFECLAERTIAIGQKQKQQNPEKGYNELLADRMHAVLPLCLEKGIKIITDMGSANPVAAGQRVLEIAKELGADKLKIAIVTGDDVHSVLIAQDSKLDEIGLPISRCGKDILSANAYLGADALVEALRQGADVIIAGRVSDPSLFLSAMMYEFDWAADDWDRLGKGTCLGHLLECAGQITGGYYADPGVKDIPNLDRLGFPIAEITEDGSAVITKVEGSGGCVCVDTCKEQLLYEIHRPDSYITPDVIADFSHVTFTQDGENRVRVQGATGREKTGTLKVSVGYQDGFIGEGEISYAGPGAVARGRLALDIVKGRFALCQLDLQEVRYDLIGVDALHGAQRSQSSEPYEVRARVAARCTSRAQAVKVGNEVETLYTNGPAGGGGVNKSVKEILAMDSTLLSRACVTPAVDYLEIK	not soluble
MSLKNLDINIVSEVRRIDNGRLDIPVYFSVCGDDASQYTGTKKQMGKGASPIQSEASACMELAERFSFFSFSKNADNFLLGDYEEMRAAGYPVLDMEHLLKSVHDTHTTVAQLEKLLAGIPMQWTWATKMTGEEGEVLIPFSWFFAINEFNGPSAGNTQEEAALQGLCEIVERDVCSRINRDKLPTAKIDVETIKDPVAVELLEKFAKNNIEVYLNDFSLETGIASVGALAIDRSTFPEKSEIVYTAGTTPNPEKAIIRAITEVAQLAGDFNTGSNYIASGLPKPLSMSEVTYLTETADQVTIDEMVDISDDNIYTEVKNCLDSLKNNGFDVYMIDVCHPQLQIPALYTIIPGAHFRERSMICNAGLFCAKLLVERIEDPAEQEVKLGEMSVLEGHHHHHH	not soluble
MILTEVSQPTEGIKLATTNVQAFFKIDSLGNGTLYITDSAVIWISSAAGTKGFSVAYPAIVLHAISTDVSVFPSEHIFVMVDQRKSVRRRRRAPVLRTIQEDDEQRGLELAAAELEDEESDDDEEEPALEIRFVPDDKDSLSQIYHQIAVGQEENPEEDDPMYDDEEEEMEEEMGDDGQGQSGQWFTADNIDHMQMSEEGLANMQRIFGRGDQHQHHHNEDESME	not soluble
MMRTWQSKLHVTQHEVKLLVTCPEQGDVLKARLPPHARHPRALLTLLEGLSLYNGQPQRIALHVDERFRLTAGLFGDELWPGESPLVQYDVAHRARQCGRLSGIGDFRALRRGSP	not soluble
MNLLERIKKLAKDRDVSIYQLEEEINIGRNTIYQWNKRTPSSDKLEAVANYFNVSVDYLLGRTENPNQAGAKPSDDLDDVLDNVMSFDGEPLDDHDREVIRAYLKGRFGK	not soluble
MLEILGKASSINVRKVLWTCAELDLPYRREDWGSGFRDTHAAEFLALNPNAMVPVLRDGELVLWESNSIIRYLANRYAGERLYPQQAAPRARVDQWLDWQASDLNRSWSYAFMSLVRQSPAHRDAAQVEASLRGWTGFMEILEGQLLRTGAYVAGETFSLADIAIGLSVNRWYETPFEHPSLPAVRAYYERLGAR	not soluble
MDSENAVKTTYGEFNGKKPFAVMLLGTDTGALDRTEKRGNTDTIIVVVVNPKKKNYTMISIPRDTMADMVGDDSNDVQKINAAYSIGGAKMAMKTVSNLLNIPVKYYALVNMGGLMKLVDYVGGIYVTPPLTFTYSGFPFKKRVRQHLNGQAALAYSRMRYDDPQGDYGRQKRQREVITKLVQKLATADSLTNFSKIANNLSSNVKTNLSFQALKSILANYSDCTSSSDSDYLHGYSTYVNDAAYQIAPTSELQRISNKIRKLLGLKTATVSNRETELNTLNETAGFKFGSGETQNYTLEHHHHHH	soluble
MWCLPLSSGNDAHMTTHIQRSALLPYPAGFLYDLVNDVARYPEFLPWCSSATVLDASESQMRASLEIAKGGLSQKFMTRNTLVPGESIVMDLVEGPFEQFHGVWTFKPLGEKACKISLDLSFDYAGTIVRATLGPLFNQAANTLVDAFCQRAKELHGLEHHHHHH	not soluble
MYQIISDSACDLTELYVKKHNIEIVPLTASLDGETYLKDKTEINRKDFYTTMVENPDIFPKTSLPSVESYETVFRKYAEQNIPVVCFTISIHLSGSYNSASMAKDVVEEDYPDAKIVVLDSQQDTVSQALIIDQVVRMQNDGIPFDTMIENTKKLMGTARIFFTVGSLDYLRIGGRIGKMAISATGKLGIKPIIILKDGEVNLGGVGRNRGKLKKNLIQIADKYLTENGKDNFVVSIGYGYDAIEGVAFKDEVEAGLGVKLNGDTNVEIGVITAVHTGPHAIGIGVIQKYETLK	not soluble
MGSDKIHHHHHHMLFLKELESNLTVSKLMELCFEHPSYKDYCSVISTKKGEVLESLSPAGTKVYFVLSGIYGMIVEEDAEMEEESYKESIVRFLQKGDSFGLYHLFYDEWSPHVSMQSLGHGEVMEVDSNFLFSIFDKKDENNFFMIKVMAEELREAHTFAKLSFLKKEERIRKAILKCAQTLGTFSDNGILLPREITQEVLARYTNTSREYVAHTVMHLIKEDIIRNRPKPLLVMDKTRL	not soluble
EKELLDNFKKNITQYAKQLEISIEKVYDEKGSVNAQKDIQNLLSEYANRQEIGEIRFIDKDQIIIATTKQSNRSLINQKANDSSVQKALSLGQSNDHLILKDYGGGKDRVWVYNIPVKVDKKVIGNIYIESKINDVYNQLNNINQ	not soluble
MSLSYVHTEIQNDALYITLDYPEKKNGLDAELGTSLLEAIRAGNNETSIHSIILQSKHRAYFSSGPRLEDLLICASDQSDVRLREVLHVLNHCVLEIFTSPKVTVALINGYAYGGGFNMMLACDRRIALRRAKFLENFHKMGISPDLGASYFLPRIIGYEQTMNLLLEGKLFTSEEALRLGLIQEICENKQELQERVKNYLKAVSEGYVPAIAATKKLLKGKAAEELKQQLEQETEELVALFKQTEIKKRLEALVEGHHHHHH	soluble
MSLSKLPLLPTTVIGSYPRPKWLRESIRLHKAGKMSNEDLQEAFNDAVIAVFQDHYKAGVDVPTDGEVRRDEMVEFFAERIKGFKFYGPVRVWGTAYYRKPSVVSKIEYREPMLVDEFTFAKSVSYTDNLKITITGPYTIAEWSYNEYYRNKKDLVFDLAKAINQEIKNLVEAGAKIIQIDEPALHTRKEDVSWGVEAVNEAVKGVNAKLVMHICYGDYSFVAPYFNEIKVDQINFALKIYNYKPLELLKKYGFDKELGAGVVDVHNRKVETSEEVANDIRKILEYFPPEKVWINPDCGLKLLSRKIAYQKLVSMVEGTKVVREELKRKGYSVDEGHHHHHH	not soluble
MKEIELIATAAAGVESVVKHEVKKLGFKDITVDNGKIMFKGDISSIPRANLWLRSADRVLLKMGEFEALTFEELFDKTYALPWDQWITSDGKFTVLGKSVKSKLFSISDCQAIVKKAVVEKLKSKYHVEWFEESGPEYTIQVALHKDIATLTIDTSGTALHKRGYRAKNVEAPIKETLASAMILISYWNKRKPLWDCFCGSGTIPIEAALIGRNIAPGLNRTFASEEWPAIGKDIWKQERALALRAIDHDIKLKIYGSDINPDAIELAKENACLAGVDDCIEFFVSDFRNVNIKEDYGVIICNPPYGERIGEQQEVETINKDMGKTFSKYDTWSKYIITPFENFERLYGKKADKKRKFYNGNIKVDYYQYFGPKPTNT	soluble
MKKIILTIGCPGSGKSTWAREFIAKNPGFYNINRDDYRQSIMAHEERDEYKYTKKKEGIVTGMQFDTAKSILYGGDSVKGVIISDTNLNPERRLAWETFAKEYGWKVEHKVFDVPWTELVKRNSKRGTKAVPIDVLRSMYKSMREYLGLPVYNGTPGKPKAVIFDVDGTLAKMNGRGPYDLEKCDTDVINPMVVELSKMYALMGYQIVVVSGRESGTKEDPTKYYRMTRKWVEDIAGVPLVMQCQREQGDTRKDDVVKEEIFWKHIAPHFDVKLAIDDRTQVVEMWRRIGVECWQVASGDF	soluble
MWKISKENCEDLGFAIVCMFYDAINLSEFKLWLDIVVRDIPIDTIPLYIFDLIDFDKSIGEIYDVIGVVNYGYISNDQKNALTGIAFLRGIDVYDPPISKEKALKALEKYPEIYQRFQHFFPFVELPLF	not soluble
